Measured values reported in patent US20150252148A1.

System: Dynamic MAPTrix™ Laminin

type IV bacterial collagenase
enzymatic digestion monitored by SDS-PAGE (25:1 substrate:collagenase, 2 h, 37° C.): the apparent molecular weight of various fractions from disgested Dynamic MAPTrix™ Laminin on a SDS-PAGE gel was 29, 18, and 12 kDa
